For assay [1], the target named is T1, human amylin-3(a) receptor (human, UniProt P30988 25-474; O60896 24-148).
T1 sequence (looked up) 1: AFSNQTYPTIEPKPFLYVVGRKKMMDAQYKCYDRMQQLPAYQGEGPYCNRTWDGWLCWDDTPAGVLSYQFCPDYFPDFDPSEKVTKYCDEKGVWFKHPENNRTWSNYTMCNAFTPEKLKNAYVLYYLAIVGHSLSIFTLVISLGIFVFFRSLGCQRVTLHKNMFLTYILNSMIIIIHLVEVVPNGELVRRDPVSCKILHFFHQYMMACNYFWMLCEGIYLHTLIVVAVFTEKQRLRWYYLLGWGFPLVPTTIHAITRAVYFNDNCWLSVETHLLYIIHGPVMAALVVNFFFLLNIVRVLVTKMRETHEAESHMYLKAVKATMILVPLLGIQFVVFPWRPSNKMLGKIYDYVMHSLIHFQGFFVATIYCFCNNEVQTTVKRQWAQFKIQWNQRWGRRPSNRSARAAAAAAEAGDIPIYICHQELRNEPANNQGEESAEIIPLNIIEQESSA
T1 sequence (looked up) 2: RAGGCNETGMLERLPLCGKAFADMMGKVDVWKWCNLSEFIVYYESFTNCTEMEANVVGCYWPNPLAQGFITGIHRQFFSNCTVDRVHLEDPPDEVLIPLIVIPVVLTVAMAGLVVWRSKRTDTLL
The experiment in a line: cell-based or functional assay.

Assay [2] has as its target T2, human calcitonin receptor (a) (human, UniProt P30988 25-474).
T2 sequence (looked up): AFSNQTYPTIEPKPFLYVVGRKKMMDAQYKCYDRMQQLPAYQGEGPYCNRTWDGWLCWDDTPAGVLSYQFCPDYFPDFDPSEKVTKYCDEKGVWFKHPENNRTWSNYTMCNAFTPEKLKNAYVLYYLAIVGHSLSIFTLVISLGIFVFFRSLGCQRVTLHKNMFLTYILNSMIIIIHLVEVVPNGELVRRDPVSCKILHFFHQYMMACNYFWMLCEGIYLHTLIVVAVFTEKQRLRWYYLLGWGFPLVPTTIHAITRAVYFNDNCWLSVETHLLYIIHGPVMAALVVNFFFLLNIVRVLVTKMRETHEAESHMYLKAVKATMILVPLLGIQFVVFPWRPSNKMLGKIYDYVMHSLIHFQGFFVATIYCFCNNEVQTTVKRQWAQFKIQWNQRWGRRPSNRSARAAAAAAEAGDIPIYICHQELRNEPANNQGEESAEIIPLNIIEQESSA
Put plainly: cell-based or functional assay.

These results are taken from patent publication US20260209293A1 (Novo Nordisk, published 2026).

*1 amine or outer side, *2 acyl side, *3 side chain or, on linkers, in order; H or OH if unused. The star is where a group is joined. C18 diacid = O=C(O)CCCCCCCCCCCCCCCCC(=O)*; γGlu = O=C(O)[C@H](CCC(=O)[*:2])N[*:1]

B1: N^1-[(4S)-4-carboxy-4-(17-carboxyheptadecanoylamino)butanoyl]-[Ala1,Ser2,His3,Leu4,Ser5,Ala7,Gln8,Ala10,Glu14,His17,Asp21,Pro22,Pro27,Asp31, Pro34,Asp35]-human … (peptide)
peptide: {C18 diacid-γGlu}-ASHLSTAQTARLAEFLHHSSDPFGAIPSSTDVGPDTY-NH2
SMILES: CC[C@H](C)[C@H](NC(=O)[C@H](C)NC(=O)CNC(=O)[C@H](Cc1ccccc1)NC(=O)[C@@H]1CCCN1C(=O)[C@H](CC(=O)O)NC(=O)[C@H](CO)NC(=O)[C@H](CO)NC(=O)[C@H](Cc1c[nH]cn1)NC(=O)[C@H](Cc1c[nH]cn1)NC(=O)[C@H](CC(C)C)NC(=O)[C@H](Cc1ccccc1)NC(=O)[C@H](CCC(=O)O)NC(=O)[C@H](C)NC(=O)[C@H](CC(C)C)NC(=O)[C@H](CCCNC(=N)N)NC(=O)[C@H](C)NC(=O)[C@@H](NC(=O)[C@H](CCC(N)=O)NC(=O)[C@H](C)NC(=O)[C@@H](NC(=O)[C@H](CO)NC(=O)[C@H](CC(C)C)NC(=O)[C@H](Cc1c[nH]cn1)NC(=O)[C@H](CO)NC(=O)[C@H](C)NC(=O)CC[C@H](NC(=O)CCCCCCCCCCCCCCCCC(=O)O)C(=O)O)[C@@H](C)O)[C@@H](C)O)C(=O)N1CCC[C@H]1C(=O)N[C@@H](CO)C(=O)N[C@@H](CO)C(=O)N[C@H](C(=O)N[C@@H](CC(=O)O)C(=O)N[C@H](C(=O)NCC(=O)N1CCC[C@H]1C(=O)N[C@@H](CC(=O)O)C(=O)N[C@H](C(=O)N[C@@H](Cc1ccc(O)cc1)C(N)=O)[C@@H](C)O)C(C)C)[C@@H](C)O
Regarding B1, the “hAmyR3 potency, EC50 (pM); CRE-luciferase reporter in BHK cells” value in assay [1] was determined as 1.68 pM. Also, the “hCalcR potency, EC50 (pM); CRE-luciferase reporter in BHK cells” value in assay [2] is 2.16 pM.

B2: N^1-[(4S)-4-carboxy-4-(17-carboxyheptadecanoylamino)butanoyl]-[Ala1,Ser2,His3,Leu4,Ser5,Ala7,Gln8,Ala10,Glu14,His17,Asp21,Pro25,Pro28,Pro29,Asp31]-human amylin (peptide)
peptide: {C18 diacid-γGlu}-ASHLSTAQTARLAEFLHHSSDNFGPILPPTDVGSNTY-NH2
SMILES: CC[C@H](C)[C@H](NC(=O)[C@@H]1CCCN1C(=O)CNC(=O)[C@H](Cc1ccccc1)NC(=O)[C@H](CC(N)=O)NC(=O)[C@H](CC(=O)O)NC(=O)[C@H](CO)NC(=O)[C@H](CO)NC(=O)[C@H](Cc1c[nH]cn1)NC(=O)[C@H](Cc1c[nH]cn1)NC(=O)[C@H](CC(C)C)NC(=O)[C@H](Cc1ccccc1)NC(=O)[C@H](CCC(=O)O)NC(=O)[C@H](C)NC(=O)[C@H](CC(C)C)NC(=O)[C@H](CCCNC(=N)N)NC(=O)[C@H](C)NC(=O)[C@@H](NC(=O)[C@H](CCC(N)=O)NC(=O)[C@H](C)NC(=O)[C@@H](NC(=O)[C@H](CO)NC(=O)[C@H](CC(C)C)NC(=O)[C@H](Cc1c[nH]cn1)NC(=O)[C@H](CO)NC(=O)[C@H](C)NC(=O)CC[C@H](NC(=O)CCCCCCCCCCCCCCCCC(=O)O)C(=O)O)[C@@H](C)O)[C@@H](C)O)C(=O)N[C@@H](CC(C)C)C(=O)N1CCC[C@H]1C(=O)N1CCC[C@H]1C(=O)N[C@H](C(=O)N[C@@H](CC(=O)O)C(=O)N[C@H](C(=O)NCC(=O)N[C@@H](CO)C(=O)N[C@@H](CC(N)=O)C(=O)N[C@H](C(=O)N[C@@H](Cc1ccc(O)cc1)C(N)=O)[C@@H](C)O)C(C)C)[C@@H](C)O
On to B2, for which, in assay [1], the “hAmyR3 potency, EC50 (pM); CRE-luciferase reporter in BHK cells” value was determined as 1.97 pM. Besides, in assay [2], the “hCalcR potency, EC50 (pM); CRE-luciferase reporter in BHK cells” value is 3.15 pM.
